The results in this text go back to patent publication US20060287236A1.

This assay deals with transferrin receptor (TfR) (human) (UniProt P02786). In words: HeLa cell based 125I-transferrin assay.
Chain of transferrin receptor (TfR) (human) (P02786 whole entry): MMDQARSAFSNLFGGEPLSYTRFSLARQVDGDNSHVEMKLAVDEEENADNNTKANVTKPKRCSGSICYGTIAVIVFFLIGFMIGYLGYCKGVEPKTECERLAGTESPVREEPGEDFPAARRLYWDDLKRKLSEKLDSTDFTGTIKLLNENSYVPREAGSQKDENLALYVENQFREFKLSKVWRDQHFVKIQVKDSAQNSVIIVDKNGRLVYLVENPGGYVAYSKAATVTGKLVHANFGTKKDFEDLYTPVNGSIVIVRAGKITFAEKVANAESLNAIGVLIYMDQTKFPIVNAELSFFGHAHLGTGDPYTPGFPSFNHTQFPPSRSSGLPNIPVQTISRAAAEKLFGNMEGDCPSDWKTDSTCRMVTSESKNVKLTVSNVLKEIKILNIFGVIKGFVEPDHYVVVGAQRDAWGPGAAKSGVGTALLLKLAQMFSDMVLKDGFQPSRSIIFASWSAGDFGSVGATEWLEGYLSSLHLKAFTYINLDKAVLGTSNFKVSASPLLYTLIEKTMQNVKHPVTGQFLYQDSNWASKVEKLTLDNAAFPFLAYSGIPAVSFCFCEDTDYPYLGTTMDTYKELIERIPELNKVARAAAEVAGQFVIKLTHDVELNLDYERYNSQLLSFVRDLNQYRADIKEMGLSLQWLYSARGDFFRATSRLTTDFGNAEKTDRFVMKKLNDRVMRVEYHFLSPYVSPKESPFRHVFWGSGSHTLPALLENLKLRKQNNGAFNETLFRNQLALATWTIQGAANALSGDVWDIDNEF

The substance “soluble H63D-HFE/β2m heterodimer (from UniProt P61769 21-119)” showed a K of 105 nM.
